According to PMC5268420 (PLoS ONE, 2017):

How the values were obtained:
[1] = target: T1, αIIbβ3 integrin on lyophilized platelets (Homo sapiens (assumed), UniProt P08514;P05106); experiment: BLI; Octet Red96; TEG4-2c scFv loaded on HIS2 (anti-penta-His) sensor at 21 μg/mL; platelets 5x10^5 to 5x10^8/mL (αIIbβ3 42 pM to 42 nM) as analyte; platelet buffer; details: one partner purified
T1 construct: integrin αIIb (CD41) on lyophilized platelets; integrin β3 on lyophilized platelets; Platelet concentrations were converted into αIIbβ3 molarities with 50 000 αIIbβ3 per platelet; also called whole platelets; blood platelets; source: bought: lyophilized platelets, Helena Biosciences Europe, resuspended

[2] = target: T2, purified αIIbβ3 integrin (Homo sapiens (assumed), UniProt P08514;P05106); experiment: SPR; Biacore 3000; αIIbβ3 amine-coupled on CM5 (about 8000 RU); scFv injected at 94, 188 and 390 nM; HBS-EP with 2 mM Ca2+; 20 μL/min; details: both partners purified
T2 construct: integrin αIIb (CD41) subunit of purified αIIbβ3; integrin β3 subunit of purified αIIbβ3; probably from human platelets (surmise); also called integrin αIIbβ3; source: bought: Kordia Life Sciences

[3] = target: T3, αIIbβ3 integrin on murine platelets in atherosclerotic aorta sections (Mus musculus, ApoE-/-, UniProt Q9QUM0;O54890); experiment: immunostaining of cells or tissue; paraffin sections of atherosclerotic arteries of mouse, rabbit and human; scFv 20-40 μg/ml overnight at 4°C; detected with HRP anti-6His and DAB; details: one partner purified
T3 construct: integrin αIIb (CD41), mouse, on platelets in tissue; integrin β3, mouse, on platelets in tissue; source: endogenous, paraffin sections of aorta of ApoE-/- mice

[4] = target: T4, αIIbβ3 integrin of rabbit platelets in aorta (Oryctolagus cuniculus, New Zealand, UniProt Q9TUN4;Q9TUN3); experiment: as above; details: one partner purified
T4 construct: integrin αIIb (CD41), rabbit, endogenous in aorta tissue; integrin β3, rabbit, endogenous in aorta tissue; In the ELISA the integrin stood within solubilised aorta proteins (T-PER or HSB lysis buffer), not on cells; also called atheromatous proteins; healthy aorta proteins; source: endogenous, New Zealand rabbit aorta (paraffin sections; soluble protein extracts of atheromatous and healthy aorta)

[5] = target: T5, αIIbβ3 integrin on human platelets (Homo sapiens, UniProt P08514;P05106); experiment: flow cytometry on cells; washed human platelets activated with 0.5 U/ml thrombin, PFA-fixed; 25 μg/mL TEG4-2c scFv overnight at 4°C; detected with Alexa Fluor 488 anti-6His; details: one partner purified
T5 construct: integrin αIIb (CD41), human, on platelets; integrin β3, human, on platelets; the state is told by the assay; also called A-PL; NA-PL; source: endogenous, human platelets (washed platelets and platelet-rich plasma from healthy donors; platelets in human coronary artery sections)

Measured: binding result

T1 sequence (P08514 32-1039, chain 1 of 2): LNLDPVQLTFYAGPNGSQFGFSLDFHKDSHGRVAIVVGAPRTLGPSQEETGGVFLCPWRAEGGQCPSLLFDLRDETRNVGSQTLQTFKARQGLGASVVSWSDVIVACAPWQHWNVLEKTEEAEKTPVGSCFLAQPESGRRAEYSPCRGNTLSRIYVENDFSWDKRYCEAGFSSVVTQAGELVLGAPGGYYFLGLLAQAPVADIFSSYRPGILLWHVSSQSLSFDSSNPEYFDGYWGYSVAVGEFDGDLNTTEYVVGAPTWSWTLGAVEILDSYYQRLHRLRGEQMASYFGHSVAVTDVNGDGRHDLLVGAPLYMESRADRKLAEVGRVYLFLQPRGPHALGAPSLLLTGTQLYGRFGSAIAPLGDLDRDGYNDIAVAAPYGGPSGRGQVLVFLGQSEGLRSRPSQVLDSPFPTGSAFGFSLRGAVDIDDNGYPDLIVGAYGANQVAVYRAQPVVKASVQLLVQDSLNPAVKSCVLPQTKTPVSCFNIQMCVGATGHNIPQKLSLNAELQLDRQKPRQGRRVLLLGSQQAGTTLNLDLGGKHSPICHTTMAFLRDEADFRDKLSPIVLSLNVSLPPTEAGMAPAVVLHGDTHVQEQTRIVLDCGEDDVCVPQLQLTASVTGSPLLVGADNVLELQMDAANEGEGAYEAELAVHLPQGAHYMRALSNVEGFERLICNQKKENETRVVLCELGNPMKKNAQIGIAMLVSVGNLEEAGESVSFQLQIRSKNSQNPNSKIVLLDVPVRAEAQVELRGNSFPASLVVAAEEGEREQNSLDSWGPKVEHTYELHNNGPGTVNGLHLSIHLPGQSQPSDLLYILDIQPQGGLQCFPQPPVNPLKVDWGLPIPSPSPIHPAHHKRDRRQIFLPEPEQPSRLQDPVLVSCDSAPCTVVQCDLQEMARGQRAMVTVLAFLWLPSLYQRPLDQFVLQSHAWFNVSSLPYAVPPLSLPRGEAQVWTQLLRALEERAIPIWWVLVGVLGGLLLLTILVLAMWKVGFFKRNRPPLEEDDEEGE
T1 sequence (P05106 27-788, chain 2 of 2): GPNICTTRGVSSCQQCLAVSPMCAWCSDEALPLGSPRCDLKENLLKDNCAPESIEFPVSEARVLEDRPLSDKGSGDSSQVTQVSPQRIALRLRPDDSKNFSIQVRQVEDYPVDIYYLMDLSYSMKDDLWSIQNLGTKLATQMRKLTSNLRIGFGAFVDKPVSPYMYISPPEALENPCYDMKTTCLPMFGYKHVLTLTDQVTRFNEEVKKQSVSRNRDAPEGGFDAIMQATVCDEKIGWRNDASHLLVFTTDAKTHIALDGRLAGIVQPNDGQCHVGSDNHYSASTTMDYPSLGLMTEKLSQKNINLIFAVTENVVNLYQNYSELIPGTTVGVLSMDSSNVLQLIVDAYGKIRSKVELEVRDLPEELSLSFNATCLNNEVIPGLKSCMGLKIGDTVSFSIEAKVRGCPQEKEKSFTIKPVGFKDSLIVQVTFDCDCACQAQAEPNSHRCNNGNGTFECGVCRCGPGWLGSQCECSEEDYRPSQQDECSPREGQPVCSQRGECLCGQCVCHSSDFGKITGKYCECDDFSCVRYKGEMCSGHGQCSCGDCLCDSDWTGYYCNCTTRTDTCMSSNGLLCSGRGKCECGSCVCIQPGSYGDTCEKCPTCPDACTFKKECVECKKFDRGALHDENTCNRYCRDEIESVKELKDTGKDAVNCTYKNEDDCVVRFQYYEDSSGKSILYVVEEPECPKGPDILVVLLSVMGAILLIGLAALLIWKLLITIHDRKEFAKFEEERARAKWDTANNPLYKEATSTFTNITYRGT
T2 sequence (P08514 32-1039, chain 1 of 2): as the sequence (P08514 32-1039, chain 1 of 2) above
T2 sequence (P05106 27-718, chain 2 of 2): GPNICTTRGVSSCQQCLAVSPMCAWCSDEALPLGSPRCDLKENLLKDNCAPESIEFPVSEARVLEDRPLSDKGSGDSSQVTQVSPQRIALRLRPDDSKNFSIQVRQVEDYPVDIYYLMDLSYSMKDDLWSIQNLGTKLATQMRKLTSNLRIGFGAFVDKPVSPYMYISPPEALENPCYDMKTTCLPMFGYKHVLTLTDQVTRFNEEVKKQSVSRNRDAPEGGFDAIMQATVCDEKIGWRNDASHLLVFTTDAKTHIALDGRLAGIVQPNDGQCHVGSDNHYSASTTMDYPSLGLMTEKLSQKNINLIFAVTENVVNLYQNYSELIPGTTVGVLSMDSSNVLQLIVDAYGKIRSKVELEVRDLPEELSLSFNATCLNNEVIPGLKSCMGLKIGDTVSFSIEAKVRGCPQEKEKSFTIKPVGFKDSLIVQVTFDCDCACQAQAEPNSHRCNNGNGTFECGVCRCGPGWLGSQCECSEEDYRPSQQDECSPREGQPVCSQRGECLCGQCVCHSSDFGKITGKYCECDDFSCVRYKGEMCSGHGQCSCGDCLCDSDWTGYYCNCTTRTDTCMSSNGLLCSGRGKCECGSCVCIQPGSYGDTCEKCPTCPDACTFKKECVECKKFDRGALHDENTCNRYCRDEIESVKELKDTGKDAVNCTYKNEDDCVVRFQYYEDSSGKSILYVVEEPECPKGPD
T5 sequence (P08514 32-1039, chain 1 of 2): as the sequence (P08514 32-1039, chain 1 of 2) above
T5 sequence (P05106 27-788, chain 2 of 2): as the sequence (P05106 27-788, chain 2 of 2) above
T3 sequence (Q9QUM0 32-1033, chain 1 of 2): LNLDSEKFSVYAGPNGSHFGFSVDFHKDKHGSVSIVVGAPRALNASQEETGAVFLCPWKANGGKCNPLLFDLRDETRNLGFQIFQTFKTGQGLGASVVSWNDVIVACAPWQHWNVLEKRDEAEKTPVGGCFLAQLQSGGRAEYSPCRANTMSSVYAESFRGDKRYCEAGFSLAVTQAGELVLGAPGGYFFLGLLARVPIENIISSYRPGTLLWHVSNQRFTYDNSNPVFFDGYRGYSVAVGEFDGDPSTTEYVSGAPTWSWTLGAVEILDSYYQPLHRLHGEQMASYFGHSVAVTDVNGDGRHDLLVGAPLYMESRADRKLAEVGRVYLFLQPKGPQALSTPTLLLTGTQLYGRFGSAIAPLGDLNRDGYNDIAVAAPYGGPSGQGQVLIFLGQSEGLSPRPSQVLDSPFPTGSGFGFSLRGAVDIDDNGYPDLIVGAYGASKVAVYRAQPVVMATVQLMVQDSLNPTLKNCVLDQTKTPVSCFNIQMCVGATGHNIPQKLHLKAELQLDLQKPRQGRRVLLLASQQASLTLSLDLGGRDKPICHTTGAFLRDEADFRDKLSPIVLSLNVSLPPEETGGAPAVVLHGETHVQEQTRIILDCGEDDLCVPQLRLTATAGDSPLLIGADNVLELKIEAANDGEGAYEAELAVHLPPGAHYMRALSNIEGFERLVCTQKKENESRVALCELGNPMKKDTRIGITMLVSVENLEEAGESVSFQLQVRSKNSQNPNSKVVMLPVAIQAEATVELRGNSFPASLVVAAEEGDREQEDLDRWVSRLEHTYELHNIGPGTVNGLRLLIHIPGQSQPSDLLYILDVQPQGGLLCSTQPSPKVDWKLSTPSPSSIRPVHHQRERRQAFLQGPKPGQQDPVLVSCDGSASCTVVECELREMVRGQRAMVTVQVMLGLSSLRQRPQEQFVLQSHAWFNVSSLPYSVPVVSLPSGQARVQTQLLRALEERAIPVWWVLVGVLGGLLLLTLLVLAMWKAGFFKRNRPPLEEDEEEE
T3 sequence (O54890 26-787, chain 2 of 2): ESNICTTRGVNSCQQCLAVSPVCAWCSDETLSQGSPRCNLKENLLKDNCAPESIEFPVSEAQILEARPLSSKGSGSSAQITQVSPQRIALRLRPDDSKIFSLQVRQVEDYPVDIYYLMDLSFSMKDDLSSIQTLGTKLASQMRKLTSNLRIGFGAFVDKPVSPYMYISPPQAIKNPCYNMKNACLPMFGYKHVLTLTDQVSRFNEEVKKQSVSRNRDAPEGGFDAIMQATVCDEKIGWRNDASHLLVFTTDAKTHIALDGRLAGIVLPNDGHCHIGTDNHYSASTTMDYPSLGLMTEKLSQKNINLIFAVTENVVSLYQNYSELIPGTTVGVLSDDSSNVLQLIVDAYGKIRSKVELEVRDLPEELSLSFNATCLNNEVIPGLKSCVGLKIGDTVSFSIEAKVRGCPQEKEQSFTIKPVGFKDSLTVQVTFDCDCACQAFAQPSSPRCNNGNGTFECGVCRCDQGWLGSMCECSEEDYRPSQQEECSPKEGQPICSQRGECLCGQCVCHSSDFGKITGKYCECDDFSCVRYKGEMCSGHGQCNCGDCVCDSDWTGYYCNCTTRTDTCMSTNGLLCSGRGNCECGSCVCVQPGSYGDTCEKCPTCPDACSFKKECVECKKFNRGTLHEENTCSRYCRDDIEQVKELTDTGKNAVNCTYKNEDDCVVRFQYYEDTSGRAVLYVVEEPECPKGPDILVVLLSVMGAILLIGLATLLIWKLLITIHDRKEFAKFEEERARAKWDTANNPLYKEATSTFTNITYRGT

B1: TEG4-2c scFv (recombinant human anti-αIIbβ3 single-chain variable fragment with 6His-Gly-Cys-Cys C-terminus) (scFv, V domains shown)
VH: QVQLVESGGGVVQPGRSLRLSCAASGFTFSSYAMHWVRQAPGKGLEWVAVISYDGSNKYYADSVKGRFTISRDNSKNTLYLQMNSLRAEDTAVYYCARKSYFDYWGQGTLVTVSS
VL: VSELTQPASVSGSPGQSITISCTGTSSDVGGYNYVSWYQQHPGKAPKLMIYEVSNRPSGVSNRFSGSKSGNTASLTISGLQAEDEADYYCSSYTSSSTLVVFGGGTKLTVL
notes: Gly-Cys-Cys added after the 6His tag at the very C-terminus (printed in three-letter code as 'Gly-Cyc-Cys'), for site-specific grafting; Order at the C-terminus: scFv, c-myc tag, 6His, Gly-Cys-Cys; Purified fractions are said to hold monomers and dimers; also called scFv TEG4-2c; anti-αIIbβ3 TEG4-2c scFv; source: Pichia pastoris X33, secreted into the supernatant, purified (IMAC HisTrap excel, …)
binds: [1] | [2] | [3] | [4] | [5]
